B1: Protein Tob2 (Homo sapiens), Q14106 (parent)
chain: MQLEIKVALNFIISYLYNKLPRRRADLFGEELERLLKKKYEGHWYPEKPLKGSGFRCVHIGEMVDPVVELAAKRSGLAVEDVRANVPEELSVWIDPFEVSYQIGEKGAVKVLYLDDSEGCGAPELDKEIKSSFNPDAQVFVPIGSQDSSLSNSPSPSFGQSPSPTFIPRSAQPITFTTASFAATKFGSTKMKKGGGAASGGGVASSGAGGQQPPQQPRMARSPTNSLLKHKSLSLSMHSLNFITANPAPQSQLSPNAKEFVYNGGGSPSLFFDAADGQGSGTPGPFGGSGAGTCNSSSFDMAQVFGGGANSLFLEKTPFVEGLSYNLNTMQYPSQQFQPVVLAN

Variants of: B1
Conditions: with pabp1_human PABPC1, P11940
Sequence of pabp1_human PABPC1, P11940 (P11940 whole entry): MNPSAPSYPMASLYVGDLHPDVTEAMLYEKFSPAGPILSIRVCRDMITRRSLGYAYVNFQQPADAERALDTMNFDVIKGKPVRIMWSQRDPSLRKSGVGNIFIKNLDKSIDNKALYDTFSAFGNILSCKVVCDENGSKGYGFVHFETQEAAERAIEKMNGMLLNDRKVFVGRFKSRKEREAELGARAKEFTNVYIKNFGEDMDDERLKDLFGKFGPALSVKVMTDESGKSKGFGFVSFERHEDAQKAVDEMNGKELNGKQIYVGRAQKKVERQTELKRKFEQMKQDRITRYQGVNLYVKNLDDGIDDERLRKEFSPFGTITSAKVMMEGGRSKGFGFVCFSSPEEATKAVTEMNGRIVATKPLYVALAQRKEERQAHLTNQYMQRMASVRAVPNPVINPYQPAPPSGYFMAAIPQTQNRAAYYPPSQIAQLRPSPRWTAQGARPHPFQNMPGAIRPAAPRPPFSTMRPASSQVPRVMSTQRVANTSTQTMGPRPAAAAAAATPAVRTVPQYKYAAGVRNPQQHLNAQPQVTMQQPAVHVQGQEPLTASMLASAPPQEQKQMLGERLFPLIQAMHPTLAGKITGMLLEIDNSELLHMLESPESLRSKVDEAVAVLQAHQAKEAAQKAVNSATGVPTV

| Variant | effect of a mutation on the interaction |
| --- | --- |
| MQLEIKVALNFIISYLYNKLPRRRADLFGEELERLLKKKYEGHWYPEKPLKGSGFRCVHIGEMVDPVVELAAKRSGLAVEDVRANVPEELSVWIDPFEVSYQIGEKGAVKVLYLDDSEGCGAPELDKEIKSSFNPDAQVAVPIGSQDSSLSNSPSPSFGQSPSPTFIPRSAQPITFTTASFAATKFGSTKMKKGGGAASGGGVASSGAGGQQPPQQPRMARSPTNSLLKHKSLSLSMHSLNFITANPAPQSQLSPNAKEAVYNGGGSPSLFFDAADGQGSGTPGPFGGSGAGTCNSSSFDMAQVFGGGANSLFLEKTPFVEGLSYNLNTMQYPSQQFQPVVLAN [F140A;F260A] | disrupting interaction |

Reference: IntAct's records for PubMed 23340509
